Experimental data from patent US20220177583A1 (University of California, published 2022).

T1: human CLDN6, endogenously expressed on cancer cell lines (human, UniProt P56747 1-220)
T1 construct: also called Endogenous CLDN6+; CLDN6 on ARK2, OVCA429, UMUC4 cells
T1 sequence: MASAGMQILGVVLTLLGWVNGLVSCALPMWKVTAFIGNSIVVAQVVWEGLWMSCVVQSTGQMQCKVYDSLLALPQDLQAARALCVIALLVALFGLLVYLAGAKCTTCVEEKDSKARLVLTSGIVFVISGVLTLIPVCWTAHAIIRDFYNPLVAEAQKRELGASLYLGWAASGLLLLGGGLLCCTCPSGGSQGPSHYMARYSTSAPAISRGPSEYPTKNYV

T2: mouse CLDN6 fused to GFP, expressed on engineered HEK293T cells (mouse, UniProt Q9Z262 1-219)
T2 construct: whole, on cells; also called HEK293T-CLDN6-mGFP Artificial CLDN6+ (mouse); murine CLDN6; not shown: GFP tag
T2 sequence (looked up): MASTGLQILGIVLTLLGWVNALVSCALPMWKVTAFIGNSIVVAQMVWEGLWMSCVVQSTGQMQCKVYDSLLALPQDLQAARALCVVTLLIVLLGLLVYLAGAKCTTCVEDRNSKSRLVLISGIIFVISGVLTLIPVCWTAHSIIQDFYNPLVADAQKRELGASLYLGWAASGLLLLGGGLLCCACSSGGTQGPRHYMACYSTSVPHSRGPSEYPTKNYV


How the values were obtained:
[1] = target: T1, human CLDN6, endogenously expressed on …; experiment: FACS, ARK2 cells, 0.3 ug Ab
[2] = target: T1, human CLDN6, endogenously expressed on …; experiment: FACS, ARK2 cells, 1.5 ug Ab
[3] = target: T2, mouse CLDN6 fused to GFP, expressed on …; experiment: FACS, 293T clone with mouse CLDN6
[4] = target: T1, human CLDN6, endogenously expressed on …; experiment: FACS, OVCA429 cells, 1.5 ug Ab

FACS signal [1] | FACS signal [2] | FACS signal [3] | FACS signal [4] | Binder
7210 | 20200 | 2650 | – | AB4-10 (antibody, V domains shown, Humanized; full-length IgG; see note of AB4-8; also called humanized AB 4-10) VH: QVQLVQSGAEVKKPGASVKMSCKASGYTFTSYTMHWIRQAPGQGQEWIGYINPSSTYTHYIKKFKDRATLTADTSTSTAYMELSSLRSEDTAVYYCSRGELGGFAYWGQGTLVTVSS VL: DVVMTQSPLSLPVTLGQPASISCRSSQSLVHSDGNTYLNWYQQRPGQSPRLLIYKVSNRFSGVPDRFSGSGSGTDFTLKISRVEAEDVGVYYCSQSTHVPYTFGQGTKLEIK
9690 | 24200 | 1130 | – | AB4-12 (antibody, V domains shown, Humanized; full-length IgG; see note of AB4-8; also called humanized AB 4-12) VH: QVQLVQSGAEVKKPGASVKMSCKASGYTFTSYTMHWIRQAPGQGQEWIGYINPSSTYTHYIKKFKDRATLTADKSTSTAYMELSSLRSEDTAVYYCSRGELGGFAYWGQGTLVTVSS VL: DVVMTQSPLSLPVTLGQPASISCRSSQSLVHSDGNTYLNWYQQRPGQSPRLLIYKVSNRFSGVPDRFSGSGSGTDFTLKISRVEAEDVGVYYCSQSTHVPYTFGQGTKLEIK
3060 | 7790 | 1780 | – | AB4-9 (antibody, V domains shown, Humanized; full-length IgG; see note of AB4-8; also called humanized AB 4-9) VH: QVQLVQSGAEVKKPGASVKMSCKASGYTFTSYTMHWIRQAPGQGLEWIGYINPSSTYTHYIKKFKDRATLTADTSTSTAYMELSSLRSEDTAVYYCSRGELGGFAYWGQGTLVTVSS VL: DVVMTQSPLSLPVTLGQPASISCRSSQSLVHSDGNTYLNWYQQRPGQSPRLLIYKVSNRFSGVPDRFSGSGSGTDFTLKISRVEAEDVGVYYCSQSTHVPYTFGQGTKLEIK
6390 | 9170 | 1230 | – | AB4-11 (antibody, V domains shown, Humanized; full-length IgG; see note of AB4-8; also called humanized AB 4-11) VH: QVQLVQSGAEVKKPGASVKMSCKASGYTFTSYTMHWIRQAPGQGLEWIGYINPSSTYTHYIKKFKDRATLTADKSTSTAYMELSSLRSEDTAVYYCSRGELGGFAYWGQGTLVTVSS VL: DVVMTQSPLSLPVTLGQPASISCRSSQSLVHSDGNTYLNWYQQRPGQSPRLLIYKVSNRFSGVPDRFSGSGSGTDFTLKISRVEAEDVGVYYCSQSTHVPYTFGQGTKLEIK
3120 | 7310 | 4700 | – | AB4-8 (antibody, V domains shown, Humanized; full-length IgG; also called humanized AB 4-8) VH: QVQLVQSGAEVKKPGASVKVSCKASGYTFTSYTMHWVRQAPGQGLEWMGYINPSSTYTHYIKKFKDRVTMTADTSTSTVYMELSSLRSEDTAVYYCSRGELGGFAYWGQGTLVTVSS VL: DVVMTQSPLSLPVTLGQPASISCRSSQSLVHSDGNTYLNWYQQRPGQSPRLLIYKVSNRFSGVPDRFSGSGSGTDFTLKISRVEAEDVGVYYCSQSTHVPYTFGQGTKLEIK
19100 | 38400 | – | 64800 | AB4-chim (antibody, V domains shown, Parental antibody prior to humanization ('chim'); also called pre-humanized form of AB4) VH: QVQLQQSGAELARPGASVKMSCKASGYTFTSYTMHWIKQRPGQGQEWIGYINPSSTYTHYIKKFKDKATLTADKSSSTAYMQLRSLTSEDSAVYYCSRGELGGFAYWGQGTLVTVSA VL: DVVMTQTPLSLPVSLGDQASISCRSSQSLVHSDGNTYLNWYLQKPGQSPKLLIYKVSNRFSGVPDRFSGSGSGTDFTLKIRRVEAEDLGVYFCSQSTHVPYTFGGGTKLEIK
1130 | 1380 | – | 3220 | AB18-4 (antibody, V domains shown, Humanized; also called humanized AB 18-4) VH: QVQLVQSGAEVKKPGASVKVSCKASGYSFTGYNMNWVRQAPGQGLEWMGNIDPYYGGSTYAQKFQGRVTMTVDTSTSTVYMELSSLRSEDTAVYYCARERSGYVFSAMDYWGQGTLVTVSS VL: DIVMTQSPDSLAVSLGERVTMNCKSSQSVLFSSNQKNYLAWYQQKPGQPPKLLIYWASTRESGVPDRFSGSGSGTDFTLTISSVQAEDVAVYYCHQYLSSRTFGQGTKLEIK
53900 | 97700 | 101000 | – | AB1-11 (antibody, V domains shown, Humanized; also called humanized AB1-11; HU-11) VH: QVQLVQSGAEVKKPGASVKMSCKASGYTFTTYTMHWVRQAPGQGLEWIGFINPSSGYTDYAQKFQGRVTLTADKSTSTVYMELSSLRSEDTAVYYCANGDYYVAYWGQGTLVTVSS VL: DIQLTQSPSSLSASVGDRVTMTCTASSSVSSTYFHWYQQKPGKAPKLWIYSTSNLASGVPSRFSGSGSGTDYTLTISSMQPEDAATYYCHQYHRSPLTFGQGTKLEIK

Second part, the binder before the results:

Binder | FACS signal [1] | FACS signal [2] | FACS signal [3] | FACS signal [4]
AB4-6 (antibody, V domains shown, Humanized; also called humanized AB 4-6) VH: QVQLVQSGAEVKKPGASVKMSCKASGYTFTSYTMHWIRQAPGQGLEWIGYINPSSTYTHYAQKFQGRATLTADKSTSTAYMELSSLRSEDTAVYYCSRGELGGFAYWGQGTLVTVSS VL: DVVMTQSPLSLPVTLGQPASISCRSSQSLVHSDGNTYLNWYQQRPGQSPRLLIYKVSNRFSGVPDRFSGSGSGTDFTLKISRVEAEDVGVYYCSQSTHVPYTFGQGTKLEIK | 3300 | 9840 | 14200 | –
AB4-7 (antibody, V domains shown, Humanized; also called humanized AB 4-7) VH: QVQLVQSGAEVKKPGASVKMSCKASGYTFTSYTMHWIRQAPGQGQEWIGYINPSSTYTHYAQKFQGRATLTADKSTSTAYMELSSLRSEDTAVYYCSRGELGGFAYWGQGTLVTVSS VL: DVVMTQSPLSLPVTLGQPASISCRSSQSLVHSDGNTYLNWYQQRPGQSPRLLIYKVSNRFSGVPDRFSGSGSGTDFTLKISRVEAEDVGVYYCSQSTHVPYTFGQGTKLEIK | 2770 | 7560 | 6640 | –
AB9-3 (antibody, V domains shown, Humanized; also called humanized AB 9-3) VH: QVQLVQSGAEVKKPGASVKMSCKASGYRFTDYNMHWVRQAPGQGLEWIGYINPNNGGTNYAQKFQGRATLTVDTSTSTAYMELSSLRSEDTAVYYCARDYLYFFDCWGQGTLLTVSS VL: DIQMTQSPSSLSASVGDRVTITCLASQTIGTWLAWYQQKPGKAPKLLIYAAASLADGVPSRFSGSGSGTDFTFTISSLQPEDFVTYYCQQLYSIPRTFGQGTKLEIK | 1140 | 1470 | – | 1260
AB18-3 (antibody, V domains shown, Humanized; full-length IgG; also called humanized AB 18-3) VH: QVQLVQSGAEVKKPGASVKVSCKASGYSFTGYNMNWVRQAPGQGLEWMGNIDPYYGGSTYAQKFQGRVTMTVDTSTSTVYMELSSLRSEDTAVYYCARERSGYVFSAMDYWGQGTLVTVSS VL: not shown | 1080 | 1210 | – | 2700
AB18-5 (antibody, V domains shown, Humanized; also called humanized AB 18-5) VH: QVQLVQSGAEVKKPGASVKISCKASGYSFTGYNMNWVRQAPGQGLEWIGNIDPYYGGSTYAQKFQGRATLTVDTSTSTAYMELSSLRSEDTAVYYCARERSGYVFSAMDYWGQGTLVTVSS VL: not shown | 1310 | 1330 | – | 4270
AB18-chim (antibody, V domains shown, Parental antibody prior to humanization ('chim'); also called pre-humanized form of AB18) VH: QVQLKQSGPELEKPGASVKISCKASGYSFTGYNMNWVKQSNGKSLEWIGNIDPYYGGSTYNQKFTGKATLTVDKSSSTAYMQLKSLTSEDSAVYYCARERSGYVFSAMDYWGQGTSVTVSS VL: NIMMTQSPSSLAVSAGEKVTMSCKSSQSVLFSSNQKNYLAWYQQKPGQSPRLLIYWASTRESGVPDRFTGSGSGTDFTLTISNVQAEDLAVYYCHQYLSSRTFGAGTKLELK | 3440 | 9150 | – | 25500
